Experimental data as given in the supplement of paper PMC7877785.
± gives the uncertainty stated by the source.

Experiment: self-splicing fitness, log relative to wild type (ln ratio); higher = more splicing; Tetrahymena group I intron in knt gene, E. coli kanamycin selection, DiMSum; sequences stand for … in CUCUCU…GGAGGGAAAAGUUAUCAGGCAUGCACCUGGUAGCUAGUCUUUAAACCAAUAGAUUGCAUCGGUUUAAAAGGCAAGACCGUCAAAUUGCGGGAAAGGGGUCAACAGCCGUUCAGUACCAAGUCUCAGGGGAAACUUUGAGAUGGCCUUGCAAAGGGUAUGGUAAUAAGCUGACGGACAUGGUCCUAACCACGCAGCCAAGUCCUAAGUCAACAGAUCUUCUGUUGAUAUGGAUGCAGUUCACAGACUAAAUGUCGGUCGGGGAAGAUGUAUUCUUCUCAUAAGAUAUAGUCGGACCUCUCCUUAAUGGGAGCUAGCGGAUGAAGUGAUGCAACACUGGAGCCGCUGGGAACUAAUUUGUAUGCGAAAGUAUAUUGAUUAGUUUUGGAGUACUCGUGGUCG
Method in brief: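 Colonies from six replicate transformations of E. coli BL21(DE3) were pooled and amplicon-sequenced on an Illumina HiSeq 2500. The library placed an intron with all eight P1ex-region nucleotides randomised inside the knt kanamycin-resistance gene on pET-22b(+), and cells grew overnight at 37°C or 30°C on LB agar with or without 25 μg/mL kanamycin (plus 100 μg/mL carbenicillin, 50 μM IPTG, 0.2% rhamnose). Fitness is the DiMSum error-weighted combination of wild-type-normalised replicate fold changes, kanamycin versus none.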

Sequence	self-splicing fitness (ln) (30 °C)	self-splicing fitness (ln) (37 °C)
UGCAAGCAAUAUUACGUUUG	-4.16 ± 0.33	-2.87 ± 0.33
ACGGAGCAAUAUUACGACCA	-3.73 ± 0.4	-1.08 ± 0.24
GCUGAGCAAUAUUACGUCGG	–	-1.27 ± 0.41
AGGAAGCAAUAUUACGACUG	-0.619 ± 0.094	0.0357 ± 0.1
CCUGAGCAAUAUUACGAGUC	–	-2.36 ± 0.34
UCGGAGCAAUAUUACGUGAC	-1.95 ± 0.34	-2.14 ± 0.46
ACCGAGCAAUAUUACGCAUC	-1.14 ± 0.17	–
CGAUAGCAAUAUUACGUCGC	-3 ± 0.15	-2.79 ± 0.21
AACAAGCAAUAUUACGACAC	-1.66 ± 0.085	-0.431 ± 0.097
UUGUAGCAAUAUUACGAACG	-1.69 ± 0.31	-0.376 ± 0.26
GGUAAGCAAUAUUACGCGAG	-2.95 ± 0.15	-0.704 ± 0.09
UGGUAGCAAUAUUACGCCCG	0.0173 ± 0.14	-0.718 ± 0.17
GCCAAGCAAUAUUACGGUUC	-2.61 ± 0.16	-0.763 ± 0.12
GGGCAGCAAUAUUACGUCCU	–	-3.02 ± 0.32
CUUCAGCAAUAUUACGUAGC	-3.62 ± 0.16	-2.95 ± 0.25
AUCGAGCAAUAUUACGCCCU	-3.05 ± 0.36	–
GUGCAGCAAUAUUACGCCUG	-2.95 ± 0.2	-2.49 ± 0.26
GUGUAGCAAUAUUACGAUGG	-2.91 ± 0.19	-1.81 ± 0.18
GUCAAGCAAUAUUACGCCCU	-0.585 ± 0.16	0.51 ± 0.15
ACACAGCAAUAUUACGCCGU	-2.08 ± 0.13	-1.13 ± 0.18

Sequence	self-splicing fitness (ln) (30 °C)	self-splicing fitness (ln) (37 °C)
ACUAAGCAAUAUUACGUCGU	-3.51 ± 0.17	-1.16 ± 0.12
UCAUAGCAAUAUUACGGAGG	-3.54 ± 0.31	-2.82 ± 0.2
GGUUAGCAAUAUUACGAACU	-1.88 ± 0.27	-0.492 ± 0.34
UUCAAGCAAUAUUACGUUAA	-1.59 ± 0.11	-1.47 ± 0.12
UCGGAGCAAUAUUACGUGGU	-3.59 ± 0.39	-1.72 ± 0.34
ACUGAGCAAUAUUACGCUAG	-1.72 ± 0.2	-3.23 ± 0.34
UUGCAGCAAUAUUACGACAG	-0.32 ± 0.11	0.414 ± 0.15
UGCAAGCAAUAUUACGAAAU	-3.34 ± 0.2	-2.04 ± 0.22
GUCGAGCAAUAUUACGGUCG	-2.44 ± 0.22	-1.94 ± 0.28
GGUUAGCAAUAUUACGCGUC	-1.53 ± 0.2	-1.04 ± 0.18
AGGAAGCAAUAUUACGCGAA	-1.83 ± 0.12	-1.38 ± 0.14
CGAUAGCAAUAUUACGUGGA	-1.9 ± 0.24	-2.62 ± 0.31
GAUUAGCAAUAUUACGGGUA	-1.98 ± 0.13	-1.04 ± 0.12
UCCAAGCAAUAUUACGUCGA	-0.163 ± 0.075	0.376 ± 0.1
UAUAAGCAAUAUUACGGUUC	-3.49 ± 0.37	-1.05 ± 0.33
GACAAGCAAUAUUACGGAUU	-2.16 ± 0.076	-0.656 ± 0.076
CGGCAGCAAUAUUACGUGUC	-3.89 ± 0.31	-2.6 ± 0.2
UGUCAGCAAUAUUACGGAAA	-1.11 ± 0.088	-0.145 ± 0.086
UCAGAGCAAUAUUACGAGUG	-2.93 ± 0.29	-0.458 ± 0.17
